Measurements reported in publication PMC10786891, “Massively parallel profiling of RNA-targeting CRISPR-Cas13d”.
Substitutions are numbered along the chain they refer to.

T1: EsCas13d, nuclease-dead (Eubacterium siraeum, UniProt B0MS50, R295A;H300A;R849A;H854A)
T1 sequence: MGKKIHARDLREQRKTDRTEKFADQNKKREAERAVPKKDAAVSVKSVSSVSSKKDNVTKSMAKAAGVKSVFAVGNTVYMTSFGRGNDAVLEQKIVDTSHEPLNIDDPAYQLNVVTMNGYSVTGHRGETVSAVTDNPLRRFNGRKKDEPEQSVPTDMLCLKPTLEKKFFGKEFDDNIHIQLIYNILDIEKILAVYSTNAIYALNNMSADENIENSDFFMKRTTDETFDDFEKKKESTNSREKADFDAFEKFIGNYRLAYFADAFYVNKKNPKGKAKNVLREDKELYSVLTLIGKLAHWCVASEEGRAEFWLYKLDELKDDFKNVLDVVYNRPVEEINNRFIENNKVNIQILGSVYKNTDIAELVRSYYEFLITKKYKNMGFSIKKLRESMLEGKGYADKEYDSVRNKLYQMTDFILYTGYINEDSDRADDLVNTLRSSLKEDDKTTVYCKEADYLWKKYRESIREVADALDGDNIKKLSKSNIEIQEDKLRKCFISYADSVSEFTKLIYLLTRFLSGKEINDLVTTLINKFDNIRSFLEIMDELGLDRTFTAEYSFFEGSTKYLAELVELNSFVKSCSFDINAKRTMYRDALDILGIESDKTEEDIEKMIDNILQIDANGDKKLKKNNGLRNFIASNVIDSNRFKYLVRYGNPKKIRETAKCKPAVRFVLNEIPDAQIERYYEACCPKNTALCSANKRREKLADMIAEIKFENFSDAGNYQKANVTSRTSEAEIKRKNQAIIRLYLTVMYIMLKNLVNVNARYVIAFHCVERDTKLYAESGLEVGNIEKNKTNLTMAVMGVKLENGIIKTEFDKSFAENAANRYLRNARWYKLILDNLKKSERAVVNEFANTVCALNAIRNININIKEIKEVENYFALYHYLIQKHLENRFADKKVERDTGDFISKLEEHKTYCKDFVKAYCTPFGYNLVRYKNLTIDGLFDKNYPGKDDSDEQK

B1: target 1 complement block 10-13 (mixed)
RNA 1: CACCCGUGCAAAAAUGCAGGGGUCUAAAACUGAGCGGAUAACCUCUCUAUGG
RNA 2: GGGAAUGGAUCCACAUCUACGAAUUCGUACCAUAGAGACCAAAUCCGCUCACCGAGAUCGGAAGAGCACACGU
B2: target 1 MT 5'PFS CUC 3'PFS CCU (mixed)
RNA 1: B1 RNA 1
RNA 2: B1 RNA 2 with G27C, A29C, C39G, C40G, A41U, A42U, G54U
B3: target 1 MT 5'PFS UAU 3'PFS AUC (mixed)
RNA 1: B1 RNA 1
RNA 2: GGGAAUGGAUCCACAUCUACGAAUUCUAUCCAUAGAGAGGUUAUCCGCUCAAUCAGAUCGGAAGAGCACACGU
B4: target 1 MT 5'PFS CAA 3'PFS UUA (mixed)
RNA 1: B1 RNA 1
RNA 2: B3 RNA 2 with U27C, U29A, A52U, C54A
B5: target 1 MT 5'PFS UCG 3'PFS UUA (mixed)
RNA 1: B1 RNA 1
RNA 2: B3 RNA 2 with A28C, U29G, A52U, C54A
B6: target 1 MT 5'PFS GGG 3'PFS CUC (mixed)
RNA 1: B1 RNA 1
RNA 2: B3 RNA 2 with U27G, A28G, U29G, A52C
B7: target 1 MT 5'PFS GGG 3'PFS CUU (mixed)
RNA 1: B1 RNA 1
RNA 2: B3 RNA 2 with U27G, A28G, U29G, A52C, C54U
B8: target 1 MT 5'PFS UUG 3'PFS UAG (mixed)
RNA 1: B1 RNA 1
RNA 2: B3 RNA 2 with A28U, U29G, A52U, U53A, C54G
B9: target 1 MT 5'PFS UCC 3'PFS AUG (mixed)
RNA 1: B1 RNA 1
RNA 2: B3 RNA 2 with A28C, U29C, C54G
B10: target 1 MT 5'PFS GGA 3'PFS ACU (mixed)
RNA 1: B1 RNA 1
RNA 2: B3 RNA 2 with U27G, A28G, U29A, U53C, C54U
B11: target 1 MT 5'PFS UAU 3'PFS AUA (mixed)
RNA 1: B1 RNA 1
RNA 2: B3 RNA 2 with C54A
B12: target 1 MT 5'PFS CUU 3'PFS AUA (mixed)
RNA 1: B1 RNA 1
RNA 2: B3 RNA 2 with U27C, A28U, C54A
B13: target 1 MT 5'PFS UCC 3'PFS AUA (mixed)
RNA 1: B1 RNA 1
RNA 2: B3 RNA 2 with A28C, U29C, C54A
B14: target 1 MT 5'PFS UGU 3'PFS UCG (mixed)
RNA 1: B1 RNA 1
RNA 2: B3 RNA 2 with A28G, A52U, U53C, C54G
B15: target 1 insC 3' of 11,insA 3' of 11 (mixed)
RNA 1: B1 RNA 1
RNA 2: GGGAAUGGAUCCACAUCUACGAAUUCGUACCAUAGAGAGGUCAUAUCCGCUCACCGAGAUCGGAAGAGCACACGU
B16: target 1 MT 5'PFS CUG 3'PFS CGG (mixed)
RNA 1: B1 RNA 1
RNA 2: B3 RNA 2 with U27C, A28U, U29G, A52C, U53G, C54G
B17: target 1 MT 5'PFS GGA 3'PFS ACC (mixed)
RNA 1: B1 RNA 1
RNA 2: B3 RNA 2 with U27G, A28G, U29A, U53C
B18: target 1 MT 5'PFS AAG 3'PFS UAU (mixed)
RNA 1: B1 RNA 1
RNA 2: B3 RNA 2 with U27A, U29G, A52U, U53A, C54U
B19: target 1 MT 5'PFS UCC 3'PFS AUC (mixed)
RNA 1: B1 RNA 1
RNA 2: B3 RNA 2 with A28C, U29C
B20: target 1 insC 3' of 19,insA 3' of 12 (mixed)
RNA 1: B1 RNA 1
RNA 2: B15 RNA 2 with A34C, G35A, A36G, G37A, A38G, G39A, U41G, C42A, A43U
B21: target 1 MT 5'PFS UCG 3'PFS CUG (mixed)
RNA 1: B1 RNA 1
RNA 2: B3 RNA 2 with A28C, U29G, A52C, C54G
B22: target 1 MT 5'PFS UGU 3'PFS UCU (mixed)
RNA 1: B1 RNA 1
RNA 2: B3 RNA 2 with A28G, A52U, U53C, C54U
B23: target 1 MT 5'PFS UCG 3'PFS UUG (mixed)
RNA 1: B1 RNA 1
RNA 2: B3 RNA 2 with A28C, U29G, A52U, C54G
B24: target 1 MT 5'PFS UGU 3'PFS UCA (mixed)
RNA 1: B1 RNA 1
RNA 2: B3 RNA 2 with A28G, A52U, U53C, C54A
B25: target 1 MT 5'PFS GGG 3'PFS CUA (mixed)
RNA 1: B1 RNA 1
RNA 2: B3 RNA 2 with U27G, A28G, U29G, A52C, C54A
B26: target 1 MT 5'PFS ACU 3'PFS CUA (mixed)
RNA 1: B1 RNA 1
RNA 2: B3 RNA 2 with U27A, A28C, A52C, C54A
B27: target 1 MT 5'PFS CUG 3'PFS CGU (mixed)
RNA 1: B1 RNA 1
RNA 2: B3 RNA 2 with U27C, A28U, U29G, A52C, U53G, C54U
B28: target 1 MT 5'PFS AGG 3'PFS CGA (mixed)
RNA 1: B1 RNA 1
RNA 2: B3 RNA 2 with U27A, A28G, U29G, A52C, U53G, C54A
B29: target 1 MT 5'PFS UCG 3'PFS CUC (mixed)
RNA 1: B1 RNA 1
RNA 2: B3 RNA 2 with A28C, U29G, A52C
B30: target 1 MT 5'PFS ACU 3'PFS CUU (mixed)
RNA 1: B1 RNA 1
RNA 2: B3 RNA 2 with U27A, A28C, A52C, C54U
B31: target 1 MT 5'PFS GGA 3'PFS CAC (mixed)
RNA 1: B1 RNA 1
RNA 2: B3 RNA 2 with U27G, A28G, U29A, A52C, U53A
B32: target 1 MT 5'PFS GGA 3'PFS CAA (mixed)
RNA 1: B1 RNA 1
RNA 2: B3 RNA 2 with U27G, A28G, U29A, A52C, U53A, C54A
B33: target 1 MT 5'PFS GGA 3'PFS ACG (mixed)
RNA 1: B1 RNA 1
RNA 2: B3 RNA 2 with U27G, A28G, U29A, U53C, C54G
B34: target 1 MT 5'PFS GGA 3'PFS ACA (mixed)
RNA 1: B1 RNA 1
RNA 2: B3 RNA 2 with U27G, A28G, U29A, U53C, C54A
B35: target 1 MT 5'PFS UCG 3'PFS UUC (mixed)
RNA 1: B1 RNA 1
RNA 2: B3 RNA 2 with A28C, U29G, A52U
B36: target 1 MT 5'PFS GGG 3'PFS CUG (mixed)
RNA 1: B1 RNA 1
RNA 2: B3 RNA 2 with U27G, A28G, U29G, A52C, C54G
B37: target 1 insU 3' of 17,insU 3' of 12 (mixed)
RNA 1: B1 RNA 1
RNA 2: B15 RNA 2 with A36U, G37A, A38G, G39A, U41G, C42U, A43U
B38: target 1 MT 5'PFS UGU 3'PFS UCC (mixed)
RNA 1: B1 RNA 1
RNA 2: B3 RNA 2 with A28G, A52U, U53C
B39: target 1 MT 5'PFS GUC 3'PFS AAU (mixed)
RNA 1: B1 RNA 1
RNA 2: B3 RNA 2 with U27G, A28U, U29C, U53A, C54U

These binders were tested against T1, EsCas13d, nuclease-dead (assay: crRNA (strand 1, pre-loaded); Mg2+; 40 mM Tris-HCl pH 7.5, 150 mM NaCl, 6 mM MgCl2, 1 mM DTT, 0.1% Tween-20, 0.2 mg/ml BSA; 25 C; 10 min per concentration, then washed). Conditions: tags: His6-TwinStrep-SUMO cleaved; N-terminal SNAP kept (SNAP-Surface 488); label: 3' end held by stalled T7 RNA polymerase.

Binder	Kd
B1	99 ± 30 nM
B2	~40 nM
B3	~65 nM
B4	7.25 ± 2 nM
B5	31.5 ± 7.5 nM
B6	23 ± 7 nM
B7	24.5 ± 9 nM
B8	47.5 ± 10.5 nM
B9	39 ± 17 nM
B10	15.8 ± 2.95 nM
B11	43 ± 15.5 nM
B12	~50.5 nM
B13	13.7 ± 5.05 nM
B14	61 ± 20.5 nM
B15	21.4 ± 1 nM
B16	18.6 ± 3.55 nM
B17	27.3 ± 7.15 nM
B18	18.5 ± 5 nM
B19	43.5 ± 17.5 nM
B20	69 ± 9 nM

Binder	Kd
B21	57.5 ± 23 nM
B22	28.5 ± 6.5 nM
B23	43 ± 8 nM
B24	47.5 ± 13 nM
B25	25.1 ± 5.2 nM
B26	~34.5 nM
B27	21 ± 6.5 nM
B28	~73 nM
B29	45.5 ± 20 nM
B30	38 ± 13 nM
B31	35.5 ± 15 nM
B32	52 ± 16 nM
B33	20.5 ± 4 nM
B34	27 ± 5 nM
B35	37 ± 12.5 nM
B36	14.7 ± 2.1 nM
B37	16.4 ± 3.2 nM
B38	39 ± 10.5 nM
B39	25.5 ± 6.5 nM
